Columns and labels:
Cyno FAP = molecular target: T1, Cyno FAP; assay: Octet
T1 chain: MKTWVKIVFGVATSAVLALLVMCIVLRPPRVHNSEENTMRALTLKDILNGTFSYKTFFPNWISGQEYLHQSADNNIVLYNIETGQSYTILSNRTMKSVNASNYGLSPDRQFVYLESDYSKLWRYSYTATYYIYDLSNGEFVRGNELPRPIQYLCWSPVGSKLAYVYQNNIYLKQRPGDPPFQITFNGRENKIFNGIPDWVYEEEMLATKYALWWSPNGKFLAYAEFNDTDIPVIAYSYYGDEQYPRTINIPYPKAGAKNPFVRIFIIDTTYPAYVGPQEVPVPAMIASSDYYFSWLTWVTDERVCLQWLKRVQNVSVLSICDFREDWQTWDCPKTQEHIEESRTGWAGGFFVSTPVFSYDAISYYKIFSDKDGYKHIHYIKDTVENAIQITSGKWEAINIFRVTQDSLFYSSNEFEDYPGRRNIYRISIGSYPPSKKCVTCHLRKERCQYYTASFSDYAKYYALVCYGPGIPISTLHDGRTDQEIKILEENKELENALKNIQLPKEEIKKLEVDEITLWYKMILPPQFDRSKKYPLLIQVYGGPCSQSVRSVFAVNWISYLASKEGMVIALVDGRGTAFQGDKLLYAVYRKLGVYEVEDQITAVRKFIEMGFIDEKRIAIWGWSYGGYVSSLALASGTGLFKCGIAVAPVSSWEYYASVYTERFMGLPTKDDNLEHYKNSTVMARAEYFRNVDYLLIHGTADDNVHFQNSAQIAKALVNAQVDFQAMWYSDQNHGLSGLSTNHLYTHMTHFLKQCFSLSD

His-tagged human FAP = His-tagged human FAP (human, UniProt Q12884 26-760); assay: Octet

Kd (Cyno FAP) [nM]	Kd (His-tagged human FAP) [nM]	Binder
0.0264	0.00482	XENP23930 (29B11, bottle-opener) (antibody) chain 1: EVQLLESGGGLVQPGGSLRLSCAASGFTFSSYAMSWVRQAPGKGLEWVSAIIGSGGITYYADSVKGRFTISRDNSKNTLYLQMNSLRAEDTAVYYCAKGWFGGFNYWGQGTLVTVSSASTKGPSVFPLAPSSKSTSGGTAALGCLVKDYFPEPVTVSWNSGALTSGVHTFPAVLQSSGLYSLSSVVTVPSSSLGTQTYICNVNHKPSDTKVDKKVEPKSCDKTHTCPPCPAPPVAGPSVFLFPPKPKDTLMISRTPEVTCVVVDVKHEDPEVKFNWYVDGVEVHNAKTKPREEEYNSTYRVVSVLTVLHQDWLNGKEYKCKVSNKALPAPIEKTISKAKGQPREPQVYTLPPSREEMTKNQVSLTCDVSGFYPSDIAVEWESDGQPENNYKTTPPVLDSDGSFFLYSKLTVDKSRWEQGDVFSCSVMHEALHNHYTQKSLSLSPGK chain 2: not shown chain 3: EIVLTQSPGTLSLSPGERATLSCRASQSVTSSYLAWYQQKPGQAPRLLINVGSRRATGIPDRFSGSGSGTDFTLTISRLEPEDFAVYYCQQGIMLPPTFGQGTKVEIKRTVAAPSVFIFPPSDEQLKSGTASVVCLLNNFYPREAKVQWKVDNALQSGNSQESVTEQDSKDSTYSLSSTLTLSKADYEKHKVYACEVTHQGLSSPVTKSFNRGEC
3.16	5.46	XENP23934 (3F2, bottle-opener) (antibody) chain 1: not shown chain 2: not shown chain 3: EIVLTQSPGTLSLSPGERATLSCRASQSVTSSYLAWYQQKPGQAPRLLINVGSRRATGIPDRFSGSGSGTDFTLTISRLEPEDFAVYYCQQGIMLPPTFGQGTKVEIKRTVAAPSVFIFPPSDEQLKSGTASVVCLLNNFYPREAKVQWKVDNALQSGNSQESVTEQDSKDSTYSLSSTLTLSKADYEKHKVYACEVTHQGLSSPVTKSFNRGEC

Reference: patent publication US20210253736A1 (published 2021)
